These results are taken from US20030036169A1 (University of Texas, published 2003).

Substitutions are numbered along the chain they refer to. No end group written: not given here.

The chains are these.
T1: Mint 1 (rat, UniProt O35430 1-839)
T1 construct: Full-length rat Mint 1 from pCMV5 vectors in transfected COS/HEK293 cells; also called Mints/X11 1; wild-type Mint 1
T1 sequence: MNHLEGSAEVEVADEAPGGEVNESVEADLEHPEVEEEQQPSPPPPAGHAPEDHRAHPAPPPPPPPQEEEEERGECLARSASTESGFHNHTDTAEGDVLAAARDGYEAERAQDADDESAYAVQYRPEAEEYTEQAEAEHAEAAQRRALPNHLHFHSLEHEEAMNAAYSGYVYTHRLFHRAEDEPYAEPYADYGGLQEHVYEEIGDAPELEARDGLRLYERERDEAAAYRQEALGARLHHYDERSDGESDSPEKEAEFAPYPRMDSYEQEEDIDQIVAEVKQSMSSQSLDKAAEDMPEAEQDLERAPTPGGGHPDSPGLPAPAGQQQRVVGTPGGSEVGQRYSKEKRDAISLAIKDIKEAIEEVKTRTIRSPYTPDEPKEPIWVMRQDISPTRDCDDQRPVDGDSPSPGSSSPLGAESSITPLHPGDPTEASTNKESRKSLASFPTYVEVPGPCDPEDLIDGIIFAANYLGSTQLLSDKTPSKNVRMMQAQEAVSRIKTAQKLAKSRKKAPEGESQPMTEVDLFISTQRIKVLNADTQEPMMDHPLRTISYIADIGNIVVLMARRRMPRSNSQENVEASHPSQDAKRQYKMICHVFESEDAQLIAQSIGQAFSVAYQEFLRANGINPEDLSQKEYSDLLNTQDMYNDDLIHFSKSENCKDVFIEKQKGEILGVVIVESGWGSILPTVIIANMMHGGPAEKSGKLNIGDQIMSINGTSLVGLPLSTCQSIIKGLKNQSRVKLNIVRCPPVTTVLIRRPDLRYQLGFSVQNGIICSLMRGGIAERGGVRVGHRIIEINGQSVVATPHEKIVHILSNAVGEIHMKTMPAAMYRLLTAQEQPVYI

T2: Mint 2 (rat, UniProt O35431 1-750)
T2 construct: Endogenous rat brain protein or full-length rat Mint 2 from a pCMV5 vector; also called Mints/X11 2; pCMV-Mint 2
T2 sequence: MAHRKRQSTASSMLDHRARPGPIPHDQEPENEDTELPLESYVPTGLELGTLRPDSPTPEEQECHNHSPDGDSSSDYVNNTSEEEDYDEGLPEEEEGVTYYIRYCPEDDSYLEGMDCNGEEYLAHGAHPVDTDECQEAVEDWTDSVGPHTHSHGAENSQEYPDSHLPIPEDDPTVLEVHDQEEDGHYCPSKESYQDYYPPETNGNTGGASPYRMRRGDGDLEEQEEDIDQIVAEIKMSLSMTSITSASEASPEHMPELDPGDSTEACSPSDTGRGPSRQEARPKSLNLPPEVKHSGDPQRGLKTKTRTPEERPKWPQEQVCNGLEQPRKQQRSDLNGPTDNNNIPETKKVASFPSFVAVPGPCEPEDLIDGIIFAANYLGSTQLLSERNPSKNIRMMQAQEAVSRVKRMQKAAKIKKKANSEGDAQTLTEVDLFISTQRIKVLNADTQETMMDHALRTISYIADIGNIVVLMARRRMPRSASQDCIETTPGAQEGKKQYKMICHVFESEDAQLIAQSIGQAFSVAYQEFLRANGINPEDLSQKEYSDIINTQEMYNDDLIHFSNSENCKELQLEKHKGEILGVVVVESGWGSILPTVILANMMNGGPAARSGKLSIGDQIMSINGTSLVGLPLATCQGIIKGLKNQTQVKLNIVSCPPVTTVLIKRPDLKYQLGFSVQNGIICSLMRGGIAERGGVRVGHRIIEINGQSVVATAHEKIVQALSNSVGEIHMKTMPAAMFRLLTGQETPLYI

T3: Mint 3 (rat, UniProt O70248 1-569)
T3 construct: Endogenous rat brain protein or full-length rat Mint 3 from a pCMV5 vector; also called Mints/X11 3; pCMV-Mint 3
T3 sequence (looked up): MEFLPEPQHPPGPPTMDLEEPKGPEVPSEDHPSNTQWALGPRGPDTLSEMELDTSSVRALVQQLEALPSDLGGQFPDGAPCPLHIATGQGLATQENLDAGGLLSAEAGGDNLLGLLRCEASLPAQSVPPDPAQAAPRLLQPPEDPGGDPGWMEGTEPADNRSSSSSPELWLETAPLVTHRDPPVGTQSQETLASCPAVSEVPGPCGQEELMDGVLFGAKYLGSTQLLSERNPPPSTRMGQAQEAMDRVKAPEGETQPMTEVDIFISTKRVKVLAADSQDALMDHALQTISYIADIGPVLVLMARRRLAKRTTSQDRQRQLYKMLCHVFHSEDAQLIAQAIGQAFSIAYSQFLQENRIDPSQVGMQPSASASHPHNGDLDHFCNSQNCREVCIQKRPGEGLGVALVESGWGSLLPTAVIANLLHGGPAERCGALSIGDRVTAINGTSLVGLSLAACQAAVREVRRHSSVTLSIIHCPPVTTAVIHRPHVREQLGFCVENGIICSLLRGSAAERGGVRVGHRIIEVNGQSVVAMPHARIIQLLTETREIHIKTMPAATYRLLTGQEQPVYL

B1: Mint 1 PDZ1* (other)
chain: T1 sequence with G670A, V671A
notes: Produced in transfected COS or HEK293 cells; also called pCMV-Mint 1-PDZ1*
B2: peptide corresponding to the extreme C-terminus of Drosophila Presenilin (CMEDLSAKQVFI) (peptide)
peptide: CMEDLSAKQVFI
modifications: also: immobilized on SulfoLink beads
notes: Has an added N-terminal Cys and is immobilized on SulfoLink beads; also called Drosophila presenilin C-terminal peptide
B3: peptide corresponding to the extreme C-terminus of human Presenilin 2 (CMDTLASHQLYI) (peptide)
peptide: CMDTLASHQLYI
modifications: also: immobilized on SulfoLink beads
notes: Has an added N-terminal Cys and is immobilized on SulfoLink beads; also called presenilin 2 C-terminal peptide
B4: immobilized cytoplasmic peptide derived from APP (CGYENPTYKFFEQMQN) (peptide)
peptide: CGYENPTYKFFEQMQN
modifications: not fully specified (residue 1); also: immobilized on SulfoLink beads via N-terminal Cys
notes: Coupled through the added N-terminal Cys to SulfoLink beads; also called immobilized cytoplasmic tail of APP; immobilized APP tail
B5: peptide corresponding to the extreme C-terminus of human Presenilin 1 (CMDQLAFHQFYI) (peptide)
peptide: CMDQLAFHQFYI
modifications: also: immobilized on SulfoLink beads
notes: Has an added N-terminal Cys and is immobilized on SulfoLink beads; also called Pres1; presenilin 1 column
B6: peptide corresponding to the extreme C-terminus of human HPV2 (poliovirus receptor-related protein 2; CGSLISRRAVYV) (peptide)
peptide: CGSLISRRAVYV
modifications: also: immobilized on SulfoLink beads
notes: Negative control peptide immobilized on SulfoLink beads; also called HPV2 control peptide
B7: Mint 1 ΔPDZ (other)
chain: MNHLEGSAEVEVADEAPGGEVNESVEADLEHPEVEEEQQPSPPPPAGHAPEDHRAHPAPPPPPPPQEEEEERGECLARSASTESGFHNHTDTAEGDVLAAARDGYEAERAQDADDESAYAVQYRPEAEEYTEQAEAEHAEAAQRRALPNHLHFHSLEHEEAMNAAYSGYVYTHRLFHRAEDEPYAEPYADYGGLQEHVYEEIGDAPELEARDGLRLYERERDEAAAYRQEALGARLHHYDERSDGESDSPEKEAEFAPYPRMDSYEQEEDIDQIVAEVKQSMSSQSLDKAAEDMPEAEQDLERAPTPGGGHPDSPGLPAPAGQQQRVVGTPGGSEVGQRYSKEKRDAISLAIKDIKEAIEEVKTRTIRSPYTPDEPKEPIWVMRQDISPTRDCDDQRPVDGDSPSPGSSSPLGAESSITPLHPGDPTEASTNKESRKSLASFPTYVEVPGPCDPEDLIDGIIFAANYLGSTQLLSDKTPSKNVRMMQAQEAVSRIKTAQKLAKSRKKAPEGESQPMTEVDLFISTQRIKVLNADTQEPMMDHPLRTISYIADIGNIVVLMARRRMPRSNSQENVEASHPSQDAKRQYKMICHVFESEDAQLIAQSIGQAFSVAYQEFLRANGINPEDLSQKEYSDLLNTQDMYNDDLIHFSKSENCKDV
B8: peptide derived from the gp41 glycoprotein (CWFSITNWLWYI) (peptide)
peptide: CWFSITNWLWYI
modifications: also: immobilized on SulfoLink beads
notes: Negative control peptide immobilized on SulfoLink beads; also called gp41 control peptide; Control

Assay [1] addresses B5. The experiment in a line: affinity chromatography of COS cell-expressed Mint 1 proteins on the immobilized presenilin 1 C-terminal peptide.
Assay [2] deals with T1, Mint 1. Briefly: affinity chromatography on the immobilized Drosophila presenilin C-terminal peptide.
Assay [3] has as its target T1, Mint 1. Briefly: affinity chromatography on the immobilized presenilin 2 C-terminal peptide.
Assay [4] addresses T1, Mint 1. Briefly: affinity chromatography on the immobilized APP tail peptide, immunoblot. Background: A western blot detects proteins with antibodies after separation by electrophoresis.
Assay [5] deals with T2, Mint 2. The description is as above.
Assay [6] has as its target T3, Mint 3. Described as above.
Assay [7] addresses T1, Mint 1. Briefly: affinity chromatography on the immobilized presenilin 1 C-terminal peptide, immunoblot.
For assay [8], the target named is T3, Mint 3. Described as above.
For assay [9], the target named is T4, synaptophysin 1 (Syp) (rat, UniProt P07825 1-307).
T4 construct: Negative control protein
T4 sequence (P07825 whole entry): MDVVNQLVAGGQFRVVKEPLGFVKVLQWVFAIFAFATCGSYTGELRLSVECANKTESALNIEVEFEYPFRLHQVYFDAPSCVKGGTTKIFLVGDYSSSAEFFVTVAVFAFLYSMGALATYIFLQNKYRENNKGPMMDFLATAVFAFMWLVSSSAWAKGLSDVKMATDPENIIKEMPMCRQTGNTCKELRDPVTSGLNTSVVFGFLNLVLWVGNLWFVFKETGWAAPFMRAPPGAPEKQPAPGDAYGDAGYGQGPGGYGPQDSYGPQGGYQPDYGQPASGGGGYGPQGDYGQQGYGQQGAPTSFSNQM
Briefly: affinity chromatography of rat forebrain membrane proteins on the presenilin 1 C-terminal peptide.

Assay [10] has as its target PSD95 (rat, UniProt P31016 1-724). The experiment in a line: affinity chromatography of rat forebrain membrane proteins on the immobilized presenilin 1 C-terminal peptide, immunoblot.
In assay [11] the target is T2, Mint 2. The description is as above.
Assay [12] has as its target T1, Mint 1. Briefly: affinity chromatography on the immobilized HPV2 control peptide.
In assay [13] the target is APP-Gal4/VP16 fusion protein (human; yeast, UniProt P05067 18-651; P04386 1-147; P06492 413-490; P05067 652-695). The experiment in a line: cell-based or functional assay.
In assay [14] the target is T2, Mint 2. Briefly: affinity chromatography of rat forebrain membrane proteins on the gp41 control peptide.
The target of assay [15] is T3, Mint 3. The description is as above.
For assay [16], the target named is T1, Mint 1. Briefly: affinity chromatography of rat brain extract on the immobilized gp41 control peptide, immunoblot.

Sequence of PSD95 (P31016 whole entry): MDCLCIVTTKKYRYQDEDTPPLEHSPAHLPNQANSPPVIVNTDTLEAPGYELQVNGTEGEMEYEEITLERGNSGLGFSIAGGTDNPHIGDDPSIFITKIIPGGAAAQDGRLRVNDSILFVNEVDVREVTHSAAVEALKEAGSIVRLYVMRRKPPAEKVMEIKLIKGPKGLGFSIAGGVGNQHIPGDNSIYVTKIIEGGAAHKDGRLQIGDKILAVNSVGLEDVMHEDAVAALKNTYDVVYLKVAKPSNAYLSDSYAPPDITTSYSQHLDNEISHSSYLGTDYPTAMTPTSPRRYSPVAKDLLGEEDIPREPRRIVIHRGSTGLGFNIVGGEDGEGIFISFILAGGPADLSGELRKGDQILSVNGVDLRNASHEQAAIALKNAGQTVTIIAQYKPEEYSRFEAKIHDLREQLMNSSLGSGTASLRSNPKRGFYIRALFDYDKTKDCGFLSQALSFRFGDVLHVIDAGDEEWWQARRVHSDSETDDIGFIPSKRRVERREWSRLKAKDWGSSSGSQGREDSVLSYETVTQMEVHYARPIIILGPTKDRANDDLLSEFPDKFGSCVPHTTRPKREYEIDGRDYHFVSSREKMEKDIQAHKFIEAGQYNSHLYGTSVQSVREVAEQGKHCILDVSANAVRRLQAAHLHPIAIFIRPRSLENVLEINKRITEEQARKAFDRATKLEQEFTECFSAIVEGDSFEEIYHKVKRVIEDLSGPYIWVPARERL

B1: the “fold decrease in binding against wild-type Mint 1” value in assay [1] was approximately 2 fold decrease.

Take B2: in assay [2], the binding result was “binds”.

For B3, the binding result in assay [3] is on record as “binds”.

For the molecule B4, the binding result in [4], in assay [5] and in assay [6] was “binds” throughout.

Regarding B5, the binding result in assay [7] was “binds”; in [8], “binds”; in assay [9] it was “no binding”; in assay [10], “binds”; in assay [11], “binds”.

For the molecule B6, the binding result in assay [12] is reported as “no binding”.

As to B7, the “potency of inhibition of transactivation relative to wild-type Mint 1 (normalized to expressed protein)” value in assay [13] is ~10 times more potent than wild-type Mint 1.

Turning to B8, the binding result in assay [14], in assay [15] and in [16] was “no binding” in each case.
